The target of experiment [1] is T1, Anti-CD28 Fab (SEQ ID NOs: 696, 697).
T1 construct: Biotinylated and captured on neutravidin coated plates in the phage ELISA
Put plainly: phage ELISA; biotinylated anti-CD28 Fab on neutravidin plates, bound phage detected with anti-M13 HRP.
T1 sequence (VH, as listed by the source, chain 1 of 2): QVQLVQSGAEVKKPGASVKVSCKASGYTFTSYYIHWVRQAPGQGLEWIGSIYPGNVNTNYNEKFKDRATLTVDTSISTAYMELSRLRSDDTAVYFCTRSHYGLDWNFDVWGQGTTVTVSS
T1 sequence (VL, as listed by the source, chain 2 of 2): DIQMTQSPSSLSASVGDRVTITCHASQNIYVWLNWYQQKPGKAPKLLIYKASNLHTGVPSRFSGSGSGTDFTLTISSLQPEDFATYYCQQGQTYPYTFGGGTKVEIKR
Method: (§1) After panning, phage infected bacteria were plated out and colonies picked into 96 well blocks. Clonal phage was then amplified and separated from bacterial cells via centrifugation.
(§2) Clonal phage were harvested as crude supematants and screened via standard ELISAs. […] Prior to the addition of clonal phage, wells were incubated with blocking buffer and CD28 antigen or blocking buffer alone. Without washing or aspirating, clonal phage supematants were then added to the wells and incubated for a short time. Wells were then washed followed by detection of bound phage using a horse radish conjugated anti-M13 antibody. Clonal phage of interest were then sent for sequence analysis.

Experiment [2] shares this target. In words: phage ELISA on anti-CD28 Fab plates; competitor CD28 antigen pre-incubated in the wells.
Target sequence in this assay (VH, as listed by the source, chain 1 of 2): as the sequence (VH, as listed by the source, chain 1 of 2) above
Target sequence in this assay (VL, as listed by the source, chain 2 of 2): as the sequence (VL, as listed by the source, chain 2 of 2) above
Method: as §1, §2
The target of experiment [3] is T2, Anti-CD28 Fab (SEQ ID NOs: 696, 697).
T2 construct: In the phage ELISA the Fab was biotinylated and captured on neutravidin coated plates
In words: phage binding ELISA; biotinylated anti-CD28 Fab on neutravidin plate, bound phage detected with anti-M13 HRP.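 Further: crude supernatants of clonal phage screened, wells pretreated with blocking buffer with or without CD28 antigen before brief phage incubation, washed, then bound phage detected.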 For orientation: In an ELISA, binding on a coated surface is turned into a signal by an enzyme label.
T2 sequence (VH, as listed by the source, chain 1 of 2): as the sequence (VH, as listed by the source, chain 1 of 2) above
T2 sequence (VL, as listed by the source, chain 2 of 2): as the sequence (VL, as listed by the source, chain 2 of 2) above

Experiment [4] shares this target. Put plainly: phage binding ELISA on captured anti-CD28 Fab; competitor: CD28 antigen.
Target sequence in this assay (VH, as listed by the source, chain 1 of 2): as the sequence (VH, as listed by the source, chain 1 of 2) above
Target sequence in this assay (VL, as listed by the source, chain 2 of 2): as the sequence (VL, as listed by the source, chain 2 of 2) above
Method: as §1, §2
Experiment [5] concerns the target T3, Anti-CD28 Fab (SEQ ID NOs: 696, 697).
T3 construct: Biotinylated and captured on neutravidin coated plates in the phage ELISA
In words: phage binding ELISA, Fab on plate pre-incubated with CD28 antigen as competitor.
T3 sequence (VH, as listed by the source, chain 1 of 2): as the sequence (VH, as listed by the source, chain 1 of 2) above
T3 sequence (VL, as listed by the source, chain 2 of 2): as the sequence (VL, as listed by the source, chain 2 of 2) above
Method: as §1, §2

For experiment [6] the target is unchanged. Put plainly: phage binding ELISA, biotinylated Fab on neutravidin plate, anti-M13 HRP detection.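 Further: crude clonal phage supernatants added to Fab-coated wells pretreated with CD28 antigen or with blocking buffer only, bound phage measured after washing.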
Target sequence in this assay (VH, as listed by the source, chain 1 of 2): as the sequence (VH, as listed by the source, chain 1 of 2) above
Target sequence in this assay (VL, as listed by the source, chain 2 of 2): as the sequence (VL, as listed by the source, chain 2 of 2) above
Method: as §1, §2
The target in experiment [7] is T4, Anti-CD28 Fab (SEQ ID NOs: 696, 697).
T4 construct: Biotinylated and captured on neutravidin coated plates in the phage ELISA
Put plainly: phage ELISA; biotinylated anti-CD28 Fab on neutravidin plate, clonal phage supernatant, anti-M13 HRP.
Method: as §1, §2

Experiment [8] has the same target. Put plainly: phage ELISA on captured anti-CD28 Fab; competitor CD28 antigen pre-incubated in the wells.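 Further: clonal phage supernatants added to wells preloaded with CD28 antigen in blocking buffer, control wells buffer only, bound phage read via HRP-linked anti-M13 antibody.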

Where no end group is shown, it is not given here.

B1: Phage-552 (peptide)
peptide: YCDGHLPIYMAKCL
Consider B1, for which the “Phage binding ELISA, Anti-CD28 Fab signal” value in experiment [1] came to 2.3. For the same molecule, the “Phage binding ELISA, Anti-CD28 Fab signal in the presence of CD28” value (“Phage binding ELISA … of CD28” below) in experiment [2] came to 0.14.

B2: Phage-547 (peptide)
peptide: YCDGHTLEYMWKCL
On to B2, for which, in experiment [1], the “Phage binding ELISA, Anti-CD28 Fab signal” value was 2.31. The “Phage binding ELISA … of CD28” value in experiment [2] is 0.13.

B3: Phage-570 (peptide)
peptide: YCDGHSTEYLWKCL
modifications: cysteine pairing not given here; also: displayed on phage by fusion to pIII, pIII and linker sequence not given here
Take B3: in experiment [3], the “Anti-CD28 Fab signal” value turned out to be 2.26. In addition, the “Anti-CD28 Fab signal in the presence of CD28” value in experiment [4] was determined as 0.06.

B4: Phage-553 (peptide)
peptide: YCDGHAPQYMRKCL
notes: Clonal phage of the Peptide-87 library, tested as crude supernatant; not shown: pIII of the bacteriophage to which the peptide is fused
On to B4, for which the “Anti-CD28 Fab signal in the presence of CD28” value in experiment [5] was 0.07. Also, the “Anti-CD28 Fab (SEQ ID NOs: 696, 697) signal” value in experiment [6] was 2.3.

B5: Phage-540 (peptide)
peptide: YCDGHEPQYMLKCL
Consider B5, for which the “Phage binding ELISA, Anti-CD28 Fab signal” value in experiment [1] worked out at 2.32. In experiment [2], the “Phage binding ELISA … of CD28” value stood at 0.12.

B6: Phage-560 (peptide)
peptide: YCDGHVPEYMAKCL
notes: as for B4
As to B6, the “Anti-CD28 Fab signal in the presence of CD28” value in experiment [5] amounted to 0.07. Also, in experiment [6], the “Anti-CD28 Fab (SEQ ID NOs: 696, 697) signal” value was 2.29.

B7: Phage-545 (peptide)
peptide: YCDGHSPEYILKCL
On to B7, for which the “Phage binding ELISA, Anti-CD28 Fab signal” value in experiment [1] was 2.31. In experiment [2], the “Phage binding ELISA … of CD28” value is 0.09.

B8: Phage-551 (peptide)
peptide: YCEGHSEEYISKCL
As to B8, the “Phage binding ELISA, Anti-CD28 Fab signal” value in experiment [1] stood at 2.3. Also, the “Phage binding ELISA … of CD28” value in experiment [2] was 0.08.

B9: Phage-544 (peptide)
peptide: YCDGHSPQYIEKCL
As to B9, the “Phage binding ELISA, Anti-CD28 Fab signal” value in experiment [1] came to 2.31. The “Phage binding ELISA … of CD28” value in experiment [2] was found to be 0.07.

B10: Phage-568 (peptide)
peptide: YCEGHTPEYMQKCL
Consider B10, for which the “Anti-CD28 Fab signal” value in experiment [3] was found to be 2.27. In addition, the “Anti-CD28 Fab signal in the presence of CD28” value in experiment [4] amounted to 0.07.

B11: Phage-572 (peptide)
peptide: YCDGHAAEYMAKCL
modifications: cysteine pairing not given here; also: displayed on phage by fusion to pIII, pIII and linker sequence not given here
As to B11, the “Anti-CD28 Fab signal” value in experiment [3] amounted to 2.26. In experiment [4], the “Anti-CD28 Fab signal in the presence of CD28” value is 0.13.

B12: Phage-561 (peptide)
peptide: YCDGHLPMYMMKCL
notes: as for B4
Turning to B12, the “Anti-CD28 Fab signal in the presence of CD28” value in experiment [5] stood at 0.14. For the same molecule, in experiment [6], the “Anti-CD28 Fab (SEQ ID NOs: 696, 697) signal” value was found to be 2.28.

B13: Phage-567 (peptide)
peptide: YCEGHLPIYLEKCM
As to B13, the “Anti-CD28 Fab signal” value in experiment [3] is 2.27. The “Anti-CD28 Fab signal in the presence of CD28” value in experiment [4] amounted to 0.1.

B14: Phage-569 (peptide)
peptide: YCDGHLPQYMMKCL
modifications: cysteine pairing not given here; also: displayed on phage by fusion to pIII, pIII and linker sequence not given here
In the case of B14, the “Anti-CD28 Fab signal” value in experiment [3] was 2.27. Moreover, the “Anti-CD28 Fab signal in the presence of CD28” value in experiment [4] worked out at 0.14.

B15: Phage-554 (peptide)
peptide: YCDGHAKEYMWKCL
notes: as for B4
Turning to B15, the “Anti-CD28 Fab signal in the presence of CD28” value in experiment [5] turned out to be 0.07. In experiment [6], the “Anti-CD28 Fab (SEQ ID NOs: 696, 697) signal” value is 2.3.

B16: Phage-571 (peptide)
peptide: YCEGHLGIYMYKCL
modifications: cysteine pairing not given here; also: displayed on phage by fusion to pIII, pIII and linker sequence not given here
On to B16, for which the “Anti-CD28 Fab signal” value in experiment [3] was 2.26. Moreover, the “Anti-CD28 Fab signal in the presence of CD28” value in experiment [4] turned out to be 0.14.

B17: Phage-558 (peptide)
peptide: YCDGHSREYIAKCL
notes: as for B4
In the case of B17, the “Anti-CD28 Fab signal in the presence of CD28” value in experiment [5] is 0.08. Further, the “Anti-CD28 Fab (SEQ ID NOs: 696, 697) signal” value in experiment [6] is 2.29.

B18: Phage-557 (peptide)
peptide: YCEGHSAQYMSKCL
notes: as for B4
B18: in experiment [5], the “Anti-CD28 Fab signal in the presence of CD28” value came to 0.07. Moreover, the “Anti-CD28 Fab (SEQ ID NOs: 696, 697) signal” value in experiment [6] came out at 2.29.

B19: Phage-525 (peptide)
peptide: YCDGHLPIYMSQCL
notes: tested as crude clonal phage supernatant
B19: the “Phage binding ELISA, Anti-CD28 Fab signal” value in experiment [7] worked out at 2.36. Further, in experiment [8], the “Phage binding ELISA … of CD28” value turned out to be 0.12.

B20: Phage-562 (peptide)
peptide: YCQGHAPEYMAKCL
notes: as for B4
Take B20: in experiment [5], the “Anti-CD28 Fab signal in the presence of CD28” value came to 0.1. Also, the “Anti-CD28 Fab (SEQ ID NOs: 696, 697) signal” value in experiment [6] came out at 2.28.

B21: Phage-563 (peptide)
peptide: YCDGHSQEYMMKCL
notes: as for B4
In the case of B21, the “Anti-CD28 Fab signal in the presence of CD28” value in experiment [5] was 0.06. Also, the “Anti-CD28 Fab (SEQ ID NOs: 696, 697) signal” value in experiment [6] worked out at 2.28.

B22: Phage-523 (peptide)
peptide: YCDGHLPEYQEKCL
notes: as for B19
As to B22, in experiment [7], the “Phage binding ELISA, Anti-CD28 Fab signal” value was 2.37. In experiment [8], the “Phage binding ELISA … of CD28” value worked out at 0.1.

B23: Phage-543 (peptide)
peptide: YCAGHLPEYMPHCI
As for B23, the “Phage binding ELISA, Anti-CD28 Fab signal” value in experiment [1] was found to be 2.31. In addition, in experiment [2], the “Phage binding ELISA … of CD28” value was 0.09.

B24: Phage-541 (peptide)
peptide: YCEGHSPEYMSKCL
Turning to B24, in experiment [1], the “Phage binding ELISA, Anti-CD28 Fab signal” value worked out at 2.31. For the same molecule, in experiment [2], the “Phage binding ELISA … of CD28” value is 0.07.

B25: Phage-565 (peptide)
peptide: YCDGHSSEYMAKCL
notes: as for B4
For the molecule B25, the “Anti-CD28 Fab signal in the presence of CD28” value in experiment [5] is 0.09. In addition, the “Anti-CD28 Fab (SEQ ID NOs: 696, 697) signal” value in experiment [6] was found to be 2.28.

B26: Phage-542 (peptide)
peptide: YCEGHTMEYMWKCL
For the molecule B26, in experiment [1], the “Phage binding ELISA, Anti-CD28 Fab signal” value came to 2.31. In addition, the “Phage binding ELISA … of CD28” value in experiment [2] was 0.07.

B27: Phage-549 (peptide)
peptide: YCDGHAPEYMAKCL
For the molecule B27, in experiment [1], the “Phage binding ELISA, Anti-CD28 Fab signal” value worked out at 2.3. For the same molecule, the “Phage binding ELISA … of CD28” value in experiment [2] was found to be 0.09.

B28: Phage-524 (peptide)
peptide: YCAGHLPQYMSKCL
notes: as for B19
On to B28, for which the “Phage binding ELISA, Anti-CD28 Fab signal” value in experiment [7] is 2.37. Besides, the “Phage binding ELISA … of CD28” value in experiment [8] turned out to be 0.11.

B29: Phage-555 (peptide)
peptide: YCEGHSSEYMLKCL
notes: as for B4
As to B29, the “Anti-CD28 Fab signal in the presence of CD28” value in experiment [5] is 0.07. Besides, the “Anti-CD28 Fab (SEQ ID NOs: 696, 697) signal” value in experiment [6] was 2.3.

B30: Phage-564 (peptide)
peptide: YCSGHLPQYMQKCL
notes: as for B4
Take B30: the “Anti-CD28 Fab signal in the presence of CD28” value in experiment [5] is 0.08. Besides, the “Anti-CD28 Fab (SEQ ID NOs: 696, 697) signal” value in experiment [6] stood at 2.28.

B31: Phage-559 (peptide)
peptide: YCDGHLPQYMWKCL
notes: as for B4
In the case of B31, in experiment [5], the “Anti-CD28 Fab signal in the presence of CD28” value is 0.12. In experiment [6], the “Anti-CD28 Fab (SEQ ID NOs: 696, 697) signal” value came out at 2.29.

B32: Phage-548 (peptide)
peptide: YCEGHLPLYMWKCL
Regarding B32, the “Phage binding ELISA, Anti-CD28 Fab signal” value in experiment [1] amounted to 2.3. In addition, in experiment [2], the “Phage binding ELISA … of CD28” value came out at 0.07.

B33: Phage-556 (peptide)
peptide: YCEGHAAEYMEKCL
notes: as for B4
Consider B33, for which the “Anti-CD28 Fab signal in the presence of CD28” value in experiment [5] is 0.11. Further, the “Anti-CD28 Fab (SEQ ID NOs: 696, 697) signal” value in experiment [6] stood at 2.3.

B34: Phage-573 (peptide)
peptide: YCEGHSQEYMSKCL
modifications: cysteine pairing not given here; also: displayed on phage by fusion to pIII, pIII and linker sequence not given here
Regarding B34, in experiment [3], the “Anti-CD28 Fab signal” value was found to be 2.26. Further, the “Anti-CD28 Fab signal in the presence of CD28” value in experiment [4] came out at 0.07.

B35: Phage-566 (peptide)
peptide: YCDGHAPQYMQKCL
As to B35, the “Anti-CD28 Fab signal” value in experiment [3] stood at 2.28. Besides, the “Anti-CD28 Fab signal in the presence of CD28” value in experiment [4] was determined as 0.11.

B36: Phage-546 (peptide)
peptide: YCDGHLDEYMAKCL
Regarding B36, in experiment [1], the “Phage binding ELISA, Anti-CD28 Fab signal” value amounted to 2.31. The “Phage binding ELISA … of CD28” value in experiment [2] turned out to be 0.08.

B37: Phage-550 (peptide)
peptide: YCAGHSPEHMWKCL
Consider B37, for which the “Phage binding ELISA, Anti-CD28 Fab signal” value in experiment [1] is 2.3. Moreover, the “Phage binding ELISA … of CD28” value in experiment [2] came out at 0.06.
